Source: publication PMC4264680
Where two headings read alike, the source gives them in different places.

Tests used:
Experiment in all cases: EMSA
CREB (purified) [1] = molecular target: T1, CREB (purified) (UniProt P16220 1-327)
[2] = molecular target: hnRNP K (purified);CREB (purified) (;, UniProt P61978;P16220 1-463;1-327, |)
CREB (purified) [3] = molecular target: T1, CREB (purified); remark: listed apart in the source

T1 sequence (P16220 whole entry): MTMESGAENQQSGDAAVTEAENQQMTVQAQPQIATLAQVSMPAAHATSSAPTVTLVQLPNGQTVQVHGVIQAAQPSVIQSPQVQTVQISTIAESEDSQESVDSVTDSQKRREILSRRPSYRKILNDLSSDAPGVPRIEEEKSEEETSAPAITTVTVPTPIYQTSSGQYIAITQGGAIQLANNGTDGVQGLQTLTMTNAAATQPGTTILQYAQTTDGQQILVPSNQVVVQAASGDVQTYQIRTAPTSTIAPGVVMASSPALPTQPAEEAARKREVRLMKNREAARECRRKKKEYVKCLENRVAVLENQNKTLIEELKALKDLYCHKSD
Sequence of hnRNP K (purified);CREB (purified) (P16220 whole entry, chain 2 of 2, other chains not shown): as the sequence (P16220 whole entry) above

| Binder | binding result (CREB (purified) [1]) | binding result [2] | binding result (CREB (purified) [3]) |
| --- | --- | --- | --- |
| CRE mutant duplex (EMSA) (dsDNA) DNA 1: GCAGGAGGTAGGAGGTGGGGGACCCAGAGGGGCTTGTCATCAGGCCTGGCC DNA 2: GGCCAGGCCTGATGACAAGCCCCTCTGGGTCCCCCACCTCCTACCTCCTGC | binds |  |  |
| Th GC-R1/CRE duplex WT (EMSA) (dsDNA) DNA 1: GCAGGAGGTAGGAGGTGGGGGACCCAGAGGGGCTTTGACGTCAGCCTGGCC DNA 2: GGCCAGGCTGACGTCAAAGCCCCTCTGGGTCCCCCACCTCCTACCTCCTGC |  | binds | binds |
